Laboratory results taken from patent US20160208018A1 (JUNO THERAPEUTICS, published 2016).
Residue numbers refer to the chain shown, from its start. In names and notes the source's numbering stands. Where two headings read alike, the source gives them in different places.

Assays:
[1] = biological target: T1, Human ROR1 (receptor tyrosine kinase-like orphan receptor 1) (human, UniProt Q01973 30-937); assay: competition with R12 scFv on ROR1-expressing cells; predicted plateau relative to R12 scFv = 100%
T1 construct: also called hROR1; K562/ROR1
Protocol: (§1) Additionally, percent (%) maximum (max) binding to ROR1-expressing cells and % max competition with the reference antibody (R12 scFv) were calculated. Percent max binding and competition values were calculated based on predicted plateaus (measured by Prism® using four parameter non-linear regression), relative to values for R12 scFv binding and inhibition, respectively, assigned as 100% in each study.
(§2) Assays also were performed to assess competition (measured as half maximal inhibitory concentration (IC₅₀)) of the clones with the R12 scFv reference antibody for binding to ROR1-expressing cells, as described in Example 1. Percent (%) max ROR1 and % max competition, as compared to the R12 scFv reference antibody, were determined as described in Example 1.

[2] = biological target: T1, Human ROR1 (receptor tyrosine …); assay: flow cytometry on ROR1-expressing cells; predicted plateau relative to R12 scFv = 100%
Protocol: as §1, §2

[3] = biological target: T1, Human ROR1 (receptor tyrosine …); assay: flow cytometry on ROR1-expressing K562 and CHOK1 cells, mean (n = 9)
[4] = biological target: T1, Human ROR1 (receptor tyrosine …); assay: flow cytometry competition, competitor R12 scFv on ROR1-expressing cells, mean (n = 5)
Protocol: (§3) Assays also were performed to assess competition of the clones with the reference antibody (R12 scFv), for binding to ROR1-expressing cells. VH clones were titrated against 2 nM Myc-R12 on ROR1/K562 cells and competition assessed with an anti-Myc-Alexa647 secondary antibody, and the half maximal inhibitory concentration (IC₅₀) determined for respective clones.
as §2

[5] = biological target: T1, Human ROR1 (receptor tyrosine …); assay: flow cytometry competition, competitor R12 scFv on ROR1-expressing cells, mean (n = 3)
Protocol: as §3, §2

[6] = biological target: T1, Human ROR1 (receptor tyrosine …); assay: flow cytometry on ROR1-expressing K562 and CHOK1 cells, mean (n = 4)
[7] = biological target: T1, Human ROR1 (receptor tyrosine …); assay: flow cytometry competition, competitor R12 scFv on ROR1-expressing cells, mean (n = 4)
Protocol: as §3, §2

[8] = biological target: T1, Human ROR1 (receptor tyrosine …); assay: flow cytometry self-competition, competitor R12 scFv on ROR1-expressing cells, mean (n = 17)
Protocol: as §3, §2

[9] = biological target: T1, Human ROR1 (receptor tyrosine …); assay: flow cytometry on ROR1-expressing K562 and CHOK1 cells, mean (n = 20)
[10] = biological target: T1, Human ROR1 (receptor tyrosine …); assay: flow cytometry self-competition, competitor 2 nM Myc-R12 scFv on ROR1/K562 cells, mean (n = 17)
Protocol: as §3

[11] = biological target: T1, Human ROR1 (receptor tyrosine …); assay: flow cytometry on ROR1-expressing K562 and CHOK1 cells, mean (n = 20); remark: listed apart in the source
Mouse ROR1 = biological target: T2, Mouse ROR1 (mouse, UniProt Q9Z139 30-937); assay: inferred from IFN-gamma release of CAR T cells on K562/mouse ROR1 cells
T2 construct: also called mROR1; K562/mouse ROR1
Protocol: Cytokine release was assessed following incubation of the CAR-expressing cells with either K562/human ROR1 (hROR1) or K562/mouse ROR1 (mROR1) antigen-expressing cells. Transduced CD8+ T cells were co-cultured with antigen-expressing cells at a single effector to target (E:T). The co-cultured cells were incubated for about 24 hours, and then supernatants were collected for measurement of IFN-γ using a cytokine immunoassay.

[12] = biological target: T1, Human ROR1 (receptor tyrosine …); assay: flow cytometry competition, competitor 2 nM Myc-R12 scFv on ROR1/K562 cells, mean (n = 2)
Protocol: as §3

[13] = biological target: T1, Human ROR1 (receptor tyrosine …); assay: flow cytometry on ROR1-expressing K562 and CHOK1 cells, mean (n = 2)
[14] = biological target: T1, Human ROR1 (receptor tyrosine …); assay: competition with Myc-R12 scFv on ROR1/K562 cells; predicted plateau relative to R12 scFv = 100%
Protocol: as §3, §1

[15] = biological target: T1, Human ROR1 (receptor tyrosine …); assay: flow cytometry on ROR1-expressing cells; predicted plateau relative to R12 scFv = 100%; remark: listed apart in the source
Protocol: as §1

[16] = biological target: T1, Human ROR1 (receptor tyrosine …); assay: flow cytometry competition, competitor 2 nM Myc-R12 scFv on ROR1/K562 cells, mean (n = 3)
Protocol: as §3

[17] = biological target: T1, Human ROR1 (receptor tyrosine …); assay: flow cytometry on ROR1-expressing K562 and CHOK1 cells, mean (n = 7)
[18] = biological target: T1, Human ROR1 (receptor tyrosine …); assay: flow cytometry competition, competitor 2 nM Myc-R12 scFv on ROR1/K562 cells, mean (n = 8)
Protocol: as §3

[19] = biological target: T1, Human ROR1 (receptor tyrosine …); assay: flow cytometry on ROR1-expressing K562 and CHOK1 cells (n = 1)
[20] = biological target: T1, Human ROR1 (receptor tyrosine …); assay: flow cytometry competition, competitor 2 nM Myc-R12 scFv on ROR1/K562 cells, mean (n not given)
Protocol: as §3

T1 sequence (Q01973 30-937): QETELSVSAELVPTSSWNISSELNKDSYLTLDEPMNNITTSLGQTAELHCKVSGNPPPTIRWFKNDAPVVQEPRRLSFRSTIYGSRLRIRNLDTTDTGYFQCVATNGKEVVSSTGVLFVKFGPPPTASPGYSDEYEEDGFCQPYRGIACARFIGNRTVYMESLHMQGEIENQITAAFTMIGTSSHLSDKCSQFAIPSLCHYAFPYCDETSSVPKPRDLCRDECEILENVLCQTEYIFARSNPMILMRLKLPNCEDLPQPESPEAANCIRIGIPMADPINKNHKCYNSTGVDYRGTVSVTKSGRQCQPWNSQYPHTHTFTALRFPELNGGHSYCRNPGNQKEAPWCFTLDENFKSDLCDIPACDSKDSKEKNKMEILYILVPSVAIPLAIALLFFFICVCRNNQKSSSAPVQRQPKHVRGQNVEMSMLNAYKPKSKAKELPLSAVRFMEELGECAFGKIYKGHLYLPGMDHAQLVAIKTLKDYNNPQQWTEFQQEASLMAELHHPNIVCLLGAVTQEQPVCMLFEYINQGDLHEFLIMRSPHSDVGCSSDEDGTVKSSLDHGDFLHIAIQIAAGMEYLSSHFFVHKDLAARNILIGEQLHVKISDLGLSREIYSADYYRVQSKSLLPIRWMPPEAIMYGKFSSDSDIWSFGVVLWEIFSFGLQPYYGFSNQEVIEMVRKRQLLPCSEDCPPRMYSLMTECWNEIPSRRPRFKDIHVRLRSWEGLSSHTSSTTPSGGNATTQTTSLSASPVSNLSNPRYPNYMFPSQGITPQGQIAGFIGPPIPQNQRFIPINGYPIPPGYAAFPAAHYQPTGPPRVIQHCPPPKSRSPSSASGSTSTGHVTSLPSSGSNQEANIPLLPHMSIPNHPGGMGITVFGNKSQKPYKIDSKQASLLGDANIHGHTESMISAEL
T2 sequence (Q9Z139 30-937): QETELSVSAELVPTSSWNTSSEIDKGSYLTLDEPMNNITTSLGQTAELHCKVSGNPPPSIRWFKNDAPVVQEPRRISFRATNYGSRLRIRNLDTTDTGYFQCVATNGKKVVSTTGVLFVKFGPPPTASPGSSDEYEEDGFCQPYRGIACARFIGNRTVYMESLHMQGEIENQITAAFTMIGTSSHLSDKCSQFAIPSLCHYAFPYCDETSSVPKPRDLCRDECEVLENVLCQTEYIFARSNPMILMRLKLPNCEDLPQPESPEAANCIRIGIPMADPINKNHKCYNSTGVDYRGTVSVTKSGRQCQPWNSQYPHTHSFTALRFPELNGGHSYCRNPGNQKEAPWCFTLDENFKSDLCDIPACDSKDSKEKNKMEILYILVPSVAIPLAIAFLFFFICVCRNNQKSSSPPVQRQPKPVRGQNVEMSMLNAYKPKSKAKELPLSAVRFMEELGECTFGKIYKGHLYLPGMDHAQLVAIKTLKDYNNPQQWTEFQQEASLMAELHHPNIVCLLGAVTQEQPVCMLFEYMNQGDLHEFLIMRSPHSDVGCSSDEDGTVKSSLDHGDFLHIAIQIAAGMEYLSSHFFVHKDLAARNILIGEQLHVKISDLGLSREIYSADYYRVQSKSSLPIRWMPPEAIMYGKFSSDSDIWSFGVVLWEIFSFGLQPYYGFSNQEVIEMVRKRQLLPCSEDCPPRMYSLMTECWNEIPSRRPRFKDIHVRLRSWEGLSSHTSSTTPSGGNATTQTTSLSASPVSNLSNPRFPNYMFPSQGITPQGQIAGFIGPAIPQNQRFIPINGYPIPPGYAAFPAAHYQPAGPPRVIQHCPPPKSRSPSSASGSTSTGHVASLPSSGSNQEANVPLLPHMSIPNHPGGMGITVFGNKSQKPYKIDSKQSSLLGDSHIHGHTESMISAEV

B1: Clone 20 scFv (scFv)
scFv: QVTLKESGGGLVKPGGSLRLSCAASGFTFSNAWMSWVRQAPGKGLEWVGRIKSKTDGGTTDYAAPVKGRFTISRDDSKNTLYLQMNSLKTEDTAVYYCARDFGRWSYYFDYWSQGTLVTVSSNIQMTQSPSSLSASVGDRVTITCRASQSINKWLAWYQQKPGKAPKLLIHDASTLESGVPSRFSGSGSGTEFTLTISSLHPDDSATYYCQQLKSRPLSFGEGTKLEIK
notes: 262 differs only at the VH N-terminus; Printed without a linker
With B1 the “% Max Competition” value [1] was 77%, the “% Max Binding” value [2] was 97% and the EC50 [3] was 2.6 nM. The IC50 [4] was 4.7 nM.

B2: Clone 48 scFv (scFv)
scFv: QVTLKESGGGLVKPGGSLRLSCAASGFTFSNAWMSWVRQAPGKGLEWVGRIKSKTDGGTTDYAAPVKGRFTISRDDSKNTLYLQMNSLKTEDTAVYYCARDFGRWSYYFDYWSQGTLVTVSSGGGGSGGGGSGGGGSQSVLTQPSSVSGTPGQRVTISCSGSSSNIGSNYVYWYQQLPGTAPKLLIYRNNQRPSGVPDRFSGSKSGTSASLAISGLRSEDEADYYCAAWDDSLSGVVFGGGTKLTVL
In the case of B2, the “% Max Competition” value [1] is reported as 55%, the IC50 [5] is reported as 53.7 nM and the EC50 [6] is reported as 9.2 nM. The “% Max Binding” value [2] was 69%.

B3: Clone 40 scFv (scFv)
scFv: QVTLKESGGGLVKPGGSLRLSCAASGFTFSNAWMSWVRQAPGKGLEWVGRIKSKTDGGTTDYAAPVKGRFTISRDDSKNTLYLQMNSLRTEDTAVYYCARDFGRWSYYFDYWSQGTLVTVSSQPVLTQPHSVSESPGKTVTISCTRSSGNIASNFVQWYQRRPDGATTNVIYEDTQRPSGVSGRFSGSIDRSSNSASLTISGLRAEDEADYYCQSYDGRNLMFGGGTKVTVL
notes: the two differ at the VH N-terminus; Printed without a linker
With B3 the “% Max Competition” value [1] was 70%, the EC50 [6] was 3.2 nM and the IC50 [7] was 22.8 nM. The “% Max Binding” value [2] was 81%.

B4: R12 scFv reference antibody (scFv)
scFv: QEQLVESGGRLVTPGGSLTLSCKASGFDFSAYYMSWVRQAPGKGLEWIATIYPSSGKTYYATWVNGRFTISSDNAQNTVDLQMNSLTAADRATYFCARDSYADDGALFNIWGPGTLVTISSGGGGSGGGGSGGGGSELVLTQSPSVSAALGSPAKITCTLSSAHKTDTIDWYQQLQGEAPRYLMQVQSDGSYTKRPGVPDRFSGSSSGADRYLIIPSVQADDEADYYCGADYIGGYVFGGGTQLTVTG
notes: also called Myc-R12; rabbit anti-ROR1 antibody
For B4, the IC50 [8] was 3.3 nM, the EC50 [9] was 0.8 nM and the IC50 [10] was 3.3 nM. It also gave an EC50 [11] of 0.8 nM.

B5: CAR containing Clone V70 VH-only antigen-binding domain (other)
chain: QVQLLESGGGLVQPGRSLRLSCTASGFTFGDYAMSWVRQAPGKGLEWVSSISGSGRSTDHADYVKGRFTISRDNSKNTVYLQMNRLRAEDTAVYYCAKVSNYEYYFDYWAQGTLVTVSS
notes: Chimeric antigen receptor expressed on primary human CD8+ T cells; tEGFR marker is split off by T2A; also called V70 CAR; not shown: Ig-derived hinge only spacer, human CD28-derived transmembrane domain, human 4-1BB-derived intracellular signaling domai
B5: binds (Mouse ROR1).

B6: CAR containing Clone V353 VH-only antigen-binding domain (other)
chain: QVTLKESGGGLVKPGGSLRLSCAASGFTFSNAWMSWVRQAPGKGLEWVGRIKSKTDGGTTDYAAPVKGRFTISRDDSKNTLYLQMNSLKTEDTAVYYCARDFGRWGYYFDYWSQGTLVTVSS
notes: Chimeric antigen receptor expressed on primary human CD8+ T cells; tEGFR marker is split off by T2A; also called V353 CAR; not shown: Ig-derived hinge only spacer, human CD28-derived transmembrane domain, human 4-1BB-derived intracellular signaling domai
B6: binds (Mouse ROR1).

B7: Clone V353 (VHH)
VHH: B6 chain
notes: human VH-only single-domain antibody, no VL
With B7 the IC50 [12] was 0.4 nM, the EC50 [13] was 0.7 nM and the “% Max Competition” value [14] was 62%. The “% Max Binding” value [15] was 35%.

B8: Clone V18 (VHH)
VHH: B6 chain with T3Q, K5V, T80S, G106S, S113G
B8 was tested, and the IC50 [16] was 3.4 nM, the EC50 [13] was 0.2 nM and the “% Max Competition” value [14] was 54%. The “% Max Binding” value [15] was 37%.

B9: Clone V70 (VHH)
VHH: B5 chain
notes: as for B7
B9 was tested, and the “% Max Competition” value [14] was 92%, the EC50 [17] was 3.1 nM and the “% Max Binding” value [15] was 92%. The IC50 [18] was 38.2 nM.

B10: Clone V224 (VHH)
VHH: QVQLVESGGGLVKPGGSLRLSCAASGFTFINAWMSWVRQAPGKGLEWVGRIKSKTDGGTTDYAAPVKGRFTISRDDSKNTLYLQMNSLKTEDTAVYYCARTYSSSWYESLLFDYWGQGTLVTVSS
notes: as for B7
In the case of B10, the “% Max Competition” value [14] is reported as 32%, the EC50 [19] is reported as 46.2 nM and the IC50 [20] is reported as 94.6 nM. For the same binder, the “% Max Binding” value [15] was 74%.

B11: Clone V95 (VHH)
VHH: QVQLVESGGGLVKPGGSLRLSCAASGFTFSNAWMSWVRQAPGKGLEWVGRIKSKTDGGTTDYAAPVKGRFTISRDDSKKTLYLQMNSLKTEDTAVYYCARGSGELRFLESYYFDYWGQGTLVTVSS
notes: as for B7
B11 was tested, and the IC50 [12] was 19 nM, the EC50 [13] was 35.5 nM and the “% Max Competition” value [14] was 36%. For the same binder, the “% Max Binding” value [15] was 61%.

B12: Clone V316 (VHH)
VHH: EVQLVESGGGLVRPGGSLRLSCAASGLTFSRTWMSWVRQAPGKGLEWVASINDDGSEKYYVDSVKGRFTISRDNARNSLYLQMNRLRAEDTAVYYCARVDSERFLEWYYFDYWGQGTLVTVSS
notes: as for B7
In the case of B12, the IC50 [12] is reported as 28.8 nM, the “% Max Competition” value [14] is reported as 37% and the EC50 [19] is reported as 28.7 nM. The “% Max Binding” value [15] was 78%.

B13: Clone V86 (VHH)
VHH: QVQLLESGGGLVQPGGSLRLSCAASGFTFSSYAMSWVRQAPGKGLEWVSAISGSGGSTYYADSVKGRFTISRDNSKNTLYLQMNSLRAEDTAVYYCARVIFGVVNIPDYWGQGTLVTVSS
notes: as for B7
B13 gave an EC50 [13] of 97.7 nM.

B14: Clone V102 (VHH)
VHH: QVQLVESGGGLVQPGRSLRLSCTASGFTFGDYAMSWVRQAPGKGLEWVGFIRSKAYGGTTEYAASVKGRFTISRDDSQSIAYLQMDSLKTEDTAVYYCAKVGPSWDYYFDYWGQGTLVTVSS
notes: as for B7
With B14 the EC50 [13] was 129 nM.
